Tested on: alpha-lactalbumin
Assay: Monolith mediated proteolysis with covalently grafted proteinase K, HPLC
Format: biochemical
Conditions: 65 °C for 2 hrs plus 30 minutes; HPLC (Figure 4)
Procedure: 160 mg/mL EDAC stock was dissolved in dry DMSO. 35 µL of this stock was added to 15 µL of 200 mM MES pH 7.0 and 20 µL 10mg/mL Proteinase K in PBS. The solution was added to a 20 mg disc carboxy monolith polymeric matrix (1:2:1 TEGDMA:EGDMA:HEMA plus 2.0% MAA). The disc was incubated for 1 hr at room temperature. The reaction was then quenched with 5 µL of 30 mg/mL glycine, pH 7.0 for 15 minutes at room temperature. The disc was then washed 3x in 1x PBS and held in 1X PBS for 4 days at 4 °C.
Alpha-lactalbumin substrate was dissolved at 10 mg/mL in 1x PBS. The proteinase K coupled disc was cut into equal 8 pie-shaped pieces. For each assay, one pie piece was placed point side down into a 0.5 mL microfuge tube. For each tube, 27 µL 10mg/mL lactalbumin solution or 1X PBS, 3 µL 5mM CaSO4, was added. The tubes were closed and incubated at 65 °C for 2 hrs. An additional 50 µL deionized distilled water, was added, the tubes closed, and incubated at 65 °C for an additional 30 minutes.

- degradation of alpha-lactalbumin: fully degraded
B1: proteinase K: Proteinase K covalently grafted with EDAC to carboxy monolith disc (1:2:1 TEGDMA:EGDMA:HEMA plus 2.0% MAA) (conjugate, UniProt P06873 106-384, looked up)
Proteinase K: AAQTNAPWGLARISSTSPGTSTYYYDESAGQGSCVYVIDTGIEASHPEFEGRAQMVKTYYYSSRDGNGHGTHCAGTVGSRTYGVAKKTQLFGVKVLDDNGSGQYSTIIAGMDFVASDKNNRNCPKGVVASLSLGGGYSSSVNSAAARLQSSGVMVAVAAGNNNADARNYSPASEPSVCTVGASDRYDRRSSFSNYGSVLDIFGPGTSILSTWIGGSTRSISGTSMATPHVAGLAAYLMTLGKTTAASACRYIADTANKGDLSNIPFGTVNLLAYNNYQA
modifications: EDAC-grafted to carboxy monolith disc
